PMC7253169

What was measured:
[1] = molecular target: BG505 SOSIP.664 Env trimer (UniProt Q2N0S6); assay: ELISA; conditions: parent: 1
[2] = molecular target: BG505 SOSIP.664 Env trimer (HIV-1 (BG505)) (UniProt Q2N0S6)
[3] = molecular target: BG505 SOSIP.664 Env trimer (HIV-1 (BG505)) (UniProt Q2N0S6); assay: ELISA; direct ELISA: plates coated with soluble BG505 SOSIP trimer (0.2 or 2 ng/μl) in PBS pH 7.4; serially diluted Fab mutants from cell culture supernatant, room temperature 1 hour; goat anti-human lambda HRP; compared with wild-type Fab on the same plate

| Substance | ratio to parent [1] | neutralization on BG505 pseudovirus; fold reduction of potency against wild-type Fab [2] | fold reduction of binding in ELISA against wild-type Fab [3] |
| --- | --- | --- | --- |
| Fab NC-Cow1 D:D26A | 0.8 | – | – |
| NC-Cow1 Fab TyrD40 alanine mutant | – | > 3 fold | – |
| NC-Cow1 Fab TyrD31 alanine mutant | – | > 9 fold | > 9 fold |
| NC-Cow1 Fab TyrD6 alanine mutant | – | > 9 fold | > 9 fold |
| Fab NC-Cow1 D:G29A | 64.2 | – | – |
| Fab NC-Cow1 D:Y40A | 1 | – | – |
| NC-Cow1 Fab ArgD27 alanine mutant | – | > 9 fold | > 9 fold |
| NC-Cow1 Fab ArgD33 alanine mutant | – | > 9 fold | > 9 fold |
| NC-Cow1 Fab ArgD11 alanine mutant | – | > 9 fold | > 9 fold |
| NC-Cow1 Fab LysH100b alanine mutant | – | > 3 fold | – |
| Fab NC-Cow1 D:M24A | 73.8 | – | – |
| NC-Cow1 Fab AsnH100 alanine mutant | – | > 3 fold | – |
| NC-Cow1 Fab GluD1 alanine mutant | – | > 3 fold | – |
| Fab NC-Cow1 D:R43A | 0.8 | – | – |
| Fab NC-Cow1 D:Q34A | 1.3 | – | – |
| Fab NC-Cow1 D:H42A | 1 | – | – |
| NC-Cow1 Fab ArgD43 alanine mutant | – | > 3 fold | – |
| Fab NC-Cow1 D:Q14A | 0.9 | – | – |
| Fab NC-Cow1 D:T7A | 1.3 | – | – |
| Fab NC-Cow1 D:E1A | 1.2 | – | – |
| Fab NC-Cow1 D:D5A | 1.9 | – | – |
| Fab NC-Cow1 H:N100A | 1.6 | – | – |
| Fab NC-Cow1 D:Q15A | 1.4 | – | – |
| Fab NC-Cow1 D:S19A | 1 | – | – |
